{"source": "paper PMC7268246", "about": "“Purification and immobilization of engineered glucose dehydrogenase: a new approach to producing gluconic acid from breadwaste” (Biotechnology for Biofuels, 2020)", "proteins": {"B1": {"name": "recombinant glucose dehydrogenase (GDH) from Sulfolobus solfataricus (enzyme, UniProt O93715 1-366, looked up)", "chain": "MKAIIVKPPNAGVQVKDVDEKKLDSYGKIKIRTIYNGICGTDREIVNGKLTLSTLPKGKDFLVLGHEAIGVVEESYHGFSQGDLVMPVNRRGCGICRNCLVGRPDFCETGEFGEAGIHKMDGFMREWWYDDPKYLVKIPKSIEDIGILAQPLADIEKSIEEILEVQKRVPVWTCDDGTLNCRKVLVVGTGPIGVLFTLLFRTYGLEVWMANRREPTEVEQTVIEETKTNYYNSSNGYDKLKDSVGKFDVIIDATGADVNILGNVIPLLGRNGVLGLFGFSTSGSVPLDYKTLQEIVHTNKTIIGLVNGQKPHFQQAVVHLASWKTLYPKAAKMLITKTVSINDEKELLKVLREKEHGEIKIRILWE", "notes": "glucose dehydrogenase (GDH) of Sulfolobus solfataricus; the discussion gives the monomer as 366 amino acid residues (41 kDa); the tagged construct has 43 kDa; also called engineered GDH; recombinant GDH; source: E. coli BL21-DE3 (pET30a), lysate heat treated at 70 °C, purified (Ni-NTA, dialysis, size exclusion chromatography)"}}, "target": "the molecule itself", "assay": "SEC; Superdex Increase 10x300GL column on an ÄKTA Pure system; Ni-NTA purified GDH dialysed into 100 mM HEPES pH 7.4, 200 mM MgCl2, 10% glycerol; run in one buffer only"}
{"protein": "B1", "values": [{"measurement": "stoichiometry N", "result": 4}]}
